Laboratory results taken from a protein production outcome set (Wang et al. 2014).

Assay: label from the status in PepcDB records

For “MAESPRRETLIGGAVVLLGVALLAATSINRHDASGQAGAYQVEAVFNRTDGIGIGSPVRLAGIPIGRIVGHKLDPEYRAIVTMRLDLPNELPDDTAAKIQTDGLLGSKYIELVSLGGGYGTIAPGGRLDYSQDSVIVEDLLVKIVAMAKIKRGLDPDIPAAEQQKAKAASHPQAPPPGGAGDPGDPFGGGAVAPPEVNPFAPGPFEDDPPPPEPGVFSPDPGRDGVSEPPPAQDTRHDMRTNTLNDTAGTAPGAVTLASLPAVQADVEEGR”, which protein production is on record?
The protein production was “failed”.

With “MAESTIITGQFVRISQVPASLGERILARIIDYFLLFIYILATSYILGKLNIHAFSGSTFFLLFLFIYLPVLCYSLLCEVFNQGQSAGKKLMNIRVVKADGTTPSLSAYLLRWLLYGIDVTITGGLGVLVILLTKNSQRLGDLAAGTMVIKEKNYRKIQVSLDEFDYLTKGYHPSFPSAADLSLEQINVISKALELHHKDRTRHIAQLAPKVRALLSVDQTNINDEKFLQTVVRDYQYYALEEI” as the sequence, how does the protein production read?
The protein production was “failed”.

For “MAETAPLRVQLIAKTDFLAPPDVPWTTDADGGPALVEFAGRACYQSWSKPNPKTATNAGYLRHIIDVGHFSVLEHASVSFYITGISRSCTHELIRHRHFSYSQLSQRYVPEKDSRVVVPPGMEDDADLRHILTEAADAARATYSELLAKLEAKFADQPNAILRRKQARQAARAVLPNATETRIVVTGNYRAWRHFIAMRASEHADVEIRRLAIECLRQLAAVAPAVFADFEVTTLADGTEVATSPLATEALEHHHHHH”, which protein production is on record?
Its protein production is “not failed”.

For “MAETIQNFLTEYYSIAIPLSILINIIISLLGFIPSIFLTAINIQLFGVTNGTVISIAGEALGAIISFYIYRMGLQKFTHDKVNKYPKVERLLYVEGREAFLLVLSFRLIPFIPSSIVTLFAALGKMSLLSFSIASTIGKIPALLIEVYSAYHVMNGTNEAKWIVTIAGCIGLYYLWKKWRKK”, which protein production is on record?
The protein production was “failed”.

With “MAETSALPTGFGELEVLAVGMVLLVEALSGLSLNTLTIFSFCKTPELRTPCHLLVLSLALADSGISLNALVAATSSLLRRWPYGSDGCQAHGFQGFVTALASICSSAAIAWGRYHHYCTRSQLAWNSAVSLVLFVWLSSAFWAALPLLGWGHYDYEPLGTCCTLDYSKGDRNFTSFLFTMSFFNFAMPLFITITSYSLMEQKLGKSGHLQVNTTLPARTLLLGWGPYAILYLYAVIADVTSISPKLQMVPALIAKMVPTINAINYALGNEMVCRGIWQCLSPQKREKDRTK” as the sequence, how does the protein production read?
Its protein production is “failed”.

For “MAEVHVIGQIMGASGFSESSLFCKWGIHTGAAWKLLSGVREGQTQVDTPQIGDMAYWSHPIDLHFATKGLQGWPRLHFQVWSQDSFGRCQLAGYGFCHVPSSPGTHQLACPTWRPLGSWREQLARAFVGGGPQLLHGDTIYSGADRYRLHTAAGGTVHLEIGLLLRNFDRYGVEC”, which protein production is on record?
Its protein production is “failed”.

For “MAEVRQNPVVIVPGVLFWDSLYEVMREALSTWIPAEKIAIVPVNLLDWLGFPPSPERSTNRVMAALDRTVRAMASRFPGEPVTIVAHSGGGTVAMIYLLERPFQGDVYAVNGLVGRLVTLGTPFHTHEHFAKIKTDFIFKHLGPEFFQKYQVVSVVSNQYKGSLDGGMIEKMCYMFYRGVTDDGNLAGDGVVPARSCFLDGAKNVTILECEHLPAPHTKWYGTKDGVEQWIEWL”, which protein production is on record?
The protein production was “failed”.

For “MAFDLQEQEQIDSLKAFWQQWGKLIGGAVLAVSLGYLGYKAYGMYQRGQSEKAAAAYEAVDDAVAAKDIAKLKSAAQQLQGEYAGTLYASRAALVLAKAAFDKNDPALAASQLEWVLKNGKDEELQAIARLRLASLLLDQKKFDGAIGELNQAHPAAFDAEFLELKGDVFVAKGDSNGARDAYKAALAKMQGESPNRQLVQTKLDALGG”, which protein production is on record?
The protein production was “failed”.

For “MAFNGAMSVGAQISDAVILAHSPKSCTHIMYQTISSAGRRTLFERGALLPVSLAPNLESTDMGEAEMIFGGMEKLEEKILELKARQPRAIVVVSACPAGIIGDDIGRTRRFSEPGLPVVTLKTDGNLAGDYLQGMLMAYTSLARQVIRLEHHHHHH”, which protein production is on record?
The protein production was “failed”.

For “MAFQVKIHQIRAFVEVARQGSIRGASRMLNMSQPALSKSIQELEEGLAAQLFFRRSKGVTLTDAGESFYQHASLILEELRAAQEDIRQRQGQLAGQINIGMGASISRSLMPAVISRFHQQHPQVKVRIMEGQLVSMINELRQGELDFTINTYYQGPYDHEFTFEKLLEKQFAIFCRPGHPAIGARSIKQLLDYSWTMPTPHGSYYKQLSELLDDQAQTPQVGVVCETFSACISLVAKSDFLSKLPEEMGCDPLHGQGLVMLPVSEILPKAAYYLIQRRDSRQTPLTASLITQFRRECGYLQS”, which protein production is on record?
Its protein production is “failed”.
